Measurements from US20150203577A1 (Chugai, published 2015).
Where a chain is given by its changes, count along the chain named. Names and notes keep the numbering of the source.

B1: H237-MB723/MRAL-k0 (antibody, mouse IgG1, kappa)
heavy: QVQLQESGPGLVKPSETLSLTCAVSGHSISHDHAWSWVRQPPGEGLEWIGFISYSGITNYNPSLQGRVTISRDNSKNTLYLQMNSLRAEDTAVYYCARSLARTTAMDYWGEGTLVTVSSAKTTPPSVYPLAPGSAAQTNSMVTLGCLVKGYFPEPVTVTWNSGSLSSGVHTFPAVLQSDLYTLSSSVTVPSSTWPSETVTCNVAHPASSTKVDKKIVPRDCGCKPCICEDYEEEDVFIFPPKPKDVLTITLTPKVTCVVVDISKDDPEVQFSWFVDDVEVHTAQTQPREEQFNSTFRSVSELPIMHQDWLNGKEFKCRVNSAAFPAPIEKTISKTKGRPKAPQVYTIPPPKEQMAKDKVSLTCMITDFFPEDITVEWQWNGQPAENYKNTQPIMDTDGSYFVYSKLNVQKSNWEAGNTFTCSVLHEGLHNHHTEKSLSHSPGK
light: not shown
notes: copies: 2 + 2
B2: H237-MB853/MRAL-k0 (antibody, mouse IgG1, kappa)
heavy: B1 heavy with D230P, Y231N, E233V, D235L, Q291L, A322D, A323G, P327Y
light: not shown
notes: copies: 2 + 2
B3: H237-MB855/MRAL-k0 (antibody, mouse IgG1, kappa)
heavy: B1 heavy with D230P, Y231N, E233V, D235L, Q291L, A322D, A323G, K330R
light: not shown
notes: copies: 2 + 2
B4: H237-MB861/MRAL-k0 (antibody, mouse IgG1, kappa)
heavy: B1 heavy with D230P, Y231N, E233V, D235L, K264D, N320D, A322D, A323G
light: not shown
notes: copies: 2 + 2
B5: H237-MB864/MRAL-k0 (antibody, mouse IgG1, kappa)
heavy: B1 heavy with D230P, Y231N, E233V, D235L, K264D, A322D, A323G, K330R
light: not shown
notes: '8239L' in r313c2 read as S239L; copies: 2 + 2
B6: H237-MB865/MRAL-k0 (antibody, mouse IgG1, kappa)
heavy: B1 heavy with D230P, Y231N, E233V, D235L, K264D, Q291L, A322D, A323G
light: not shown
notes: copies: 2 + 2
B7: H237-MB093/MRAL-k0 (antibody, mouse IgG1, kappa)
heavy: B1 heavy with E229T, D230V, Y231P, E233V, D235S
light: not shown
notes: copies: 2 + 2
B8: H237-MB075/MRAL-k0 (antibody, mouse IgG1, kappa)
heavy: B1 heavy with E229T, D230V, Y231P, E234S, D235S
light: not shown
notes: copies: 2 + 2
B9: H237-MB092/MRAL-k0 (antibody, mouse IgG1, kappa)
heavy: B1 heavy with E229T, D230V, Y231P, E233V, E234D, D235S
light: not shown
notes: copies: 2 + 2
B10: H237-MB112/MRAL-k0 (antibody, mouse IgG1, kappa)
heavy: B1 heavy with E229T, D230V, Y231P, E233V, E234S, D235F
light: not shown
notes: copies: 2 + 2
B11: H237-MB125/MRAL-k0 (antibody, mouse IgG1, kappa)
heavy: B1 heavy with E229T, D230V, Y231P, E233V, E234S, D235W
light: not shown
notes: copies: 2 + 2
B12: H237-MB146/MRAL-k0 (antibody, mouse IgG1, kappa)
heavy: B1 heavy with E229T, D230V, Y231P, E233V, E234S, D235S, F237D
light: not shown
notes: copies: 2 + 2
B13: H237-MB147/MRAL-k0 (antibody, mouse IgG1, kappa)
heavy: B1 heavy with E229T, D230V, Y231P, E233V, E234S, D235S, F237E
light: not shown
notes: copies: 2 + 2
B14: H237-MB159/MRAL-k0 (antibody, mouse IgG1, kappa)
heavy: B1 heavy with E229T, D230V, Y231P, E233V, E234S, D235S, F237T
light: not shown
notes: copies: 2 + 2
B15: H237-MB208/MRAL-k0 (antibody, mouse IgG1, kappa)
heavy: B1 heavy with E229T, D230V, Y231P, E233V, E234S, D235S, S263M
light: not shown
notes: copies: 2 + 2
B16: H237-MB258/MRAL-k0 (antibody, mouse IgG1, kappa)
heavy: B1 heavy with E229T, D230V, Y231P, E233V, E234S, D235S, S294H
light: not shown
notes: copies: 2 + 2
B17: H237-MB722/MRAL-k0 (antibody, mouse IgG1, kappa)
heavy: B1 heavy with D230A
light: not shown
notes: copies: 2 + 2
B18: H237-MB723/MRAL-k0 (antibody, mouse IgG1, kappa)
heavy: B1 heavy
light: not shown
notes: copies: 2 + 2
B19: H237-MB724/MRAL-k0 (antibody, mouse IgG1, kappa)
heavy: B1 heavy with D230N
light: not shown
notes: copies: 2 + 2
B20: H237-MB725/MRAL-k0 (antibody, mouse IgG1, kappa)
heavy: B1 heavy with D230T
light: not shown
notes: copies: 2 + 2
B21: H237-MB726/MRAL-k0 (antibody, mouse IgG1, kappa)
heavy: B1 heavy with D230V
light: not shown
notes: copies: 2 + 2
B22: H237-MB727/MRAL-k0 (antibody, mouse IgG1, kappa)
heavy: B1 heavy with D230P, Y231A
light: not shown
notes: copies: 2 + 2
B23: H237-MB729/MRAL-k0 (antibody, mouse IgG1, kappa)
heavy: B1 heavy with D230P, Y231N
light: not shown
notes: copies: 2 + 2
B24: H237-MB730/MRAL-k0 (antibody, mouse IgG1, kappa)
heavy: B1 heavy with E229Q, D230P, Y231N
light: not shown
notes: copies: 2 + 2
B25: H237-MB731/MRAL-k0 (antibody, mouse IgG1, kappa)
heavy: B1 heavy with D230P, Y231A, D235L
light: not shown
notes: copies: 2 + 2
B26: H237-MB732/MRAL-k0 (antibody, mouse IgG1, kappa)
heavy: B1 heavy with D230P, Y231N, D235L
light: not shown
notes: copies: 2 + 2

Biological target: T1, mouse FcγRII (mouse, UniProt P08101 30-210)
T1 construct: Extracellular domain with C-terminal His tag, made in FreeStyle 293 cells; also called mFcγRII; mFcgRII
T1 sequence: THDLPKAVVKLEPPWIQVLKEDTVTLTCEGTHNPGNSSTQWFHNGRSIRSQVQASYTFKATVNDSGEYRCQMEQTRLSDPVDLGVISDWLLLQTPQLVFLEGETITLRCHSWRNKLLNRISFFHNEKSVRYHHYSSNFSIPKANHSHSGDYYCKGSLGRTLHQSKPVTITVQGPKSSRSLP
Assay: SPR (Biacore), antibody captured on Protein L

In order of rising Kd:
1. B5  1.9 nM
2. B6  2.51 nM
3. B4  2.74 nM
4. B3  5.81 nM
5. B2  5.99 nM
6. B1  19 nM

Biological target: T2, mouse FcγRIII (mouse, UniProt P08508 31-215)
T2 construct: Extracellular domain with C-terminal His tag, made in FreeStyle 293 cells; also called mFcγRIII; mFcgRIII
T2 chain: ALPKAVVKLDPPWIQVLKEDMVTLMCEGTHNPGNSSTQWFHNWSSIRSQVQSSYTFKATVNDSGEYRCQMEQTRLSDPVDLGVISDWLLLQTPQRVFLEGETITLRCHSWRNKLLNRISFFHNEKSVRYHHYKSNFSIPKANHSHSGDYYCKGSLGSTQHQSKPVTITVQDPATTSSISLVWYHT
Assay: SPR (Biacore), antibody captured on Protein L

In order of falling Kd:
1. B1  645 nM
2. B2  249 nM
3. B3  248 nM
4. B4  117 nM
5. B6  84.4 nM
6. B5  77.6 nM

Biological target: T1, mouse FcγRII
Assay: SPR (Biacore), KD of H237-mIgG1/MRAL-k0 / KD of variant
Experimental: (§1) Each altered antibody was analyzed for its interaction with each Fcγ receptor prepared above using Biacore T100 (GE Healthcare Japan Corp.), Biacore T200 (GE Healthcare Japan Corp.), Biacore A100, or Biacore 4000. The running buffer used was HBS-EP+ (GE Healthcare Japan Corp.). The assay temperature was set to 25° C. The sensor chips used were chips prepared by immobilizing Protein L (ACTIGEN or BioVision) onto Series S Sensor Chip CM5 (GE Healthcare Japan Corp.) or Series S Sensor Chip CM4 (GE Healthcare Japan Corp.) by the amine coupling method.
(§2) In order to calculate the KD value of each altered antibody for FcγR, kinetic analysis was conducted according to the following method: first, the antibody of interest was captured onto any of these chips and allowed to interact with mFcγR diluted with a running buffer. For the obtained sensorgram, the assay results were globally fit into the 1:1 Langmuir binding model using Biacore Evaluation Software to calculate an association rate constant ka (L/mol/s) and a dissociation rate constant kd (1/s). From these values, the dissociation constant KD (mol/L) was calculated.

In order of rising “relative mFcγRII-binding activity (mIgG1 = 1)” value:
1. B1  11 fold
2. B2  35 fold
3. B3  36.2 fold
4. B4  76.8 fold
5. B6  83.8 fold
6. B5  110 fold

Biological target: T2, mouse FcγRIII
Assay: as above
Experimental: as §1, §2

In order of falling “relative mFcγRIII-binding activity (mIgG1 = 1)” value:
1. B5  3.6 fold
2. B6  3.3 fold
3. B4  2.4 fold
4. B2  1.1 fold
5. B3  1.1 fold
6. B1  0.4 fold

Biological target: T3, mouse FcγRII extracellular domain, C-terminal His tag (mouse, UniProt P08101 30-210)
T3 construct: Whole entry named; also called mFcγRII; mFcgRII
T3 sequence: T1 sequence
Assay: SPR (Biacore T200); KD of H237-mIgG1/MRAL-k0 / KD of variant

In order of rising “relative mFcγRII-binding activity (mIgG1 = 1)” value:
1. B8  0.12 fold
2. B9  0.16 fold
3. B14  0.37 fold
4. B16  0.37 fold
5. B15  0.4 fold
6. B10  0.47 fold
7. B11  0.81 fold
8. B12  0.85 fold
9. B13  0.95 fold
10. B7  2.48 fold

Biological target: T4, mouse FcγRIII extracellular domain, C-terminal His tag (mouse, UniProt P08508 31-215)
T4 construct: Whole entry named; also called mFcγRIII; mFcgRIII
T4 chain: T2 chain
Assay: as above

In order of falling “relative mFcγRIII-binding activity (mIgG1 = 1)” value:
1. B7  0.61 fold
2. B11  0.48 fold
3. B13  0.36 fold
4. B16  0.32 fold
5. B14  0.28 fold
6. B10  0.27 fold
7. B15  0.26 fold
8. B12  0.21 fold
9. B8  0.07 fold
10. B9  0.05 fold

Biological target: T3, mouse FcγRII extracellular domain, …
Assay: as above
Remark: another data set of the same source
Description: (§3) The antibody H chain variable region used was the variable region H237 (SEQ ID NO: 1) of the H chain VH3-IgG1 of the anti-IL-6 receptor antibody Fv4-IgG1 described in WO2009/125825. The antibody L chain commonly used was the L chain MRAL-k0 (SEQ ID NO: 2) of the anti-IL-6 receptor antibody tocilizumab. The aforementioned 11 variants were used as templates to introduce the alteration. These variants were expressed and purified by the method of Reference Example 1 and evaluated for their binding to mFcγRII and mFcγRIII by the method of Reference Example 2 using Biacore T200.
as §1, §2

In order of rising “relative mFcγRII-binding activity (mIgG1 = 1)” value:
1. B26  0.84 fold
2. B25  7.13 fold
3. B24  7.24 fold
4. B23  10.4 fold
5. B22  11.7 fold
6. B18  14.1 fold
7. B19  20.8 fold
8. B20  24.3 fold
9. B17  33.3 fold
10. B21  35.7 fold

Biological target: T4, mouse FcγRIII extracellular domain, …
Assay: as above
Remark: another data set of the same source
Description: as §3, §1, §2

In order of falling “relative mFcγRIII-binding activity (mIgG1 = 1)” value:
1. B21  2.08 fold
2. B20  1.39 fold
3. B17  1.35 fold
4. B19  1.19 fold
5. B18  0.72 fold
6. B22  0.66 fold
7. B23  0.53 fold
8. B24  0.43 fold
9. B25  0.03 fold
10. B26  0.03 fold
